Assay results from FireProtDB (doi:10.1021/bi972642d).

B1: Protein S100-G, P02633 (parent)
chain: MSAKKSPEELKGIFEKYAAKEGDPNQLSKEELKLLLQTEFPSLLKGPSTLDELFEELDKNGDGEVSFEEFQVLVKKISQ

Variants of: B1
Conditions: Bos taurus; pH 7; 25 °C; Urea; CD; Potassium phosphate 10 mM; structure 1IGV; whole UniProt chain shown

## MSAKKSPEELKGIFEKYAAKEGDPNQLSKEEAKLLLQTEFPSLLKGPSTLDELFEELDKNGDGEVSFEEFQVLVKKISQ [L32A]
  ddG of mutation (higher = less stable): 2.7 kcal/mol
  denaturant m value: 1.03 kcal/mol/M
  denaturant midpoint (higher = more stable): 3.8 M
  unfolding free energy: 3.85 kcal/mol

## MSAKKSPEELKGIFEKYAAKEGDPNQLSKEELKLLLQTEFPSLLKGPSTLDELFEELDKNGDGEVSFEEAQVLVKKISQ [F70A]
  ddG of mutation (higher = less stable): 4.97 kcal/mol
  denaturant m value: 0.79 kcal/mol/M
  denaturant midpoint (higher = more stable): 2 M
  unfolding free energy: 1.58 kcal/mol

## MSAKKSPEELKGIFEKYAAKEGDPNQLSKEELKLLLQTEFPSLLKGPSTLDELFEELDKNGDGEVSFEEWQVLVKKISQ [F70W]
  ddG of mutation (higher = less stable): 2.34 kcal/mol
  denaturant m value: 0.69 kcal/mol/M
  denaturant midpoint (higher = more stable): 6.1 M
  unfolding free energy: 4.21 kcal/mol

## MSAKKSPEELKGIFEKYAAKEGDPNQLSKEELKLLLQTEFPSLLKGPSTLDELFEELDKNGDGEVSFEEFQVLLKKISQ [V74L]
  ddG of mutation (higher = less stable): 1.2 kcal/mol
  denaturant m value: 0.81 kcal/mol/M
  denaturant midpoint (higher = more stable): 6.6 M
  unfolding free energy: 5.35 kcal/mol

## MSAKKSPEELKGIFEKYAAKEGDPNQLSKEELKLLLQTEFPSLLKGPSTLDELFEELDKNGDGEVSFEEFQVLVKKVSQ [I77V]
  ddG of mutation (higher = less stable): 1.53 kcal/mol
  denaturant m value: 1.15 kcal/mol/M
  denaturant midpoint (higher = more stable): 4.4 M
  unfolding free energy: 5.02 kcal/mol

## MSAKKSPEELKGIFEKYAAKEGDPNQGSKEELKLLLQTEFPSLLKGPSTLDELFEELDKNGDGEVSFEEFQVLVKKISQ [L27G]
  ddG of mutation (higher = less stable): 4.28 kcal/mol
  denaturant m value: 1.22 kcal/mol/M
  denaturant midpoint (higher = more stable): 1.8 M
  unfolding free energy: 2.27 kcal/mol

## MSAKKSPEELKGIFEKYAAKEGDPNQASKEELKLLLQTEFPSLLKGPSTLDELFEELDKNGDGEVSFEEFQVLVKKISQ [L27A]
  ddG of mutation (higher = less stable): 3.73 kcal/mol
  denaturant m value: 1.03 kcal/mol/M
  denaturant midpoint (higher = more stable): 2.7 M
  unfolding free energy: 2.82 kcal/mol

## MSAKKSPEEVKGIFEKYAAKEGDPNQLSKEELKLLLQTEFPSLLKGPSTLDELFEELDKNGDGEVSFEEFQVLVKKISQ [L10V]
  ddG of mutation (higher = less stable): 2.2 kcal/mol
  denaturant m value: 1 kcal/mol/M
  denaturant midpoint (higher = more stable): 4.3 M
  unfolding free energy: 4.35 kcal/mol

## MSAKKSPEELKGIFEKYAAKEGDPNQLSKEELKLLLQTEFPSLLKGPSTLDELFEELDKNGDGEGSFEEFQVLVKKISQ [V65G]
  ddG of mutation (higher = less stable): 4.35 kcal/mol
  denaturant m value: 0.86 kcal/mol/M
  denaturant midpoint (higher = more stable): 2.6 M
  unfolding free energy: 2.2 kcal/mol

## MSAKKSPEELKGIFEKYAAKEGDPNQLSKEELKLLLQTEFPSLLKGPSTLDELFEELDKNGDGEASFEEFQVLVKKISQ [V65A]
  ddG of mutation (higher = less stable): 3.78 kcal/mol
  denaturant m value: 0.81 kcal/mol/M
  denaturant midpoint (higher = more stable): 3.4 M
  unfolding free energy: 2.77 kcal/mol

## MSAKKSPEELKGIAEKYAAKEGDPNQLSKEELKLLLQTEFPSLLKGPSTLDELFEELDKNGDGEVSFEEFQVLVKKISQ [F14A]
  ddG of mutation (higher = less stable): 4.83 kcal/mol
  denaturant m value: 0.88 kcal/mol/M
  denaturant midpoint (higher = more stable): 2 M
  unfolding free energy: 1.72 kcal/mol
